The results in this text go back to publication PMC8423243.

Where two headings read alike, the source gives them in different places.

As to “BG505 Env S241N variant (SOSIP and virus): S241N (PNGS knock-in; direction given for knock-in relative to parental BG505)”, the other entry (N-glycosylation at N241) is “abolishes”.
Take “BG505 Env P291T (virus) / P291S (SOSIP) variant: P291T (PNGS knock-in at N289; direction given for knock-in relative to parental BG505)”: the other result (N-glycosylation at N289) is “abolishes”.
In the case of “BG505 Env (BG505 SOSIP trimer and BG505 T332N virus): deletion of the N611 PNGS (N611A virus)”, the other result (N-glycosylation at N611) is reported as “no change”.
For the substance “BG505 Env S241N variant (SOSIP and virus): S241N + P291T (double PNGS knock-in; direction given for knock-in relative to parental BG505)”, the other entry (N-glycosylation at N241) is “abolishes”.
On to “BG505 Env (BG505 SOSIP trimer and BG505 T332N virus): N611A (virus)”, for which, for the setting “N-glycosylation at N611”, the other entry is “increases”.
With “BG505 Env P291T (virus) / P291S (SOSIP) variant: P291T and S241N + P291T (PNGS knock-ins; direction given for knock-in relative to parental BG505)”, the other result (N-glycosylation at N289) is “decreases”.
